We go through 2 molecules from paper PMC2515308, “Structural characterization of CA1462, the Candida albicans thiamine pyrophosphokinase” (BMC Structural Biology, 2008).

Data set [1] concerns the target Candida albicans thiamine pyrophosphokinase CA1462 (Candida albicans). The data set can be described thus: SEC; gel filtration of the purified TPK proteins on a Sephacryl S200 HR column. On the technique in general: Size exclusion chromatography separates by hydrodynamic size, large species first.
Data set [2] deals with the molecule itself. The description is as above.

What is called stoichiometry N is a count of units in the complex or per binding partner.

Take “Candida albicans thiamine pyrophosphokinase CA1462 (enzyme)”: the stoichiometry N in data set [1] worked out at 2.

B1: Saccharomyces cerevisiae thiamine pyrophosphokinase YOR143C (enzyme)
chain: GHHHQLSEECIENPERIKIGTDLINIRNKMNLKELIHPNEDENSTLLILNQKIDIPRPLFYKIWKLHDLKVCADGAANRLYDYLDDDETLRIKYLPNYIIGDLDSLSEKVYKYYRKNKVTIIKQTTQYSTDFTKCVNLISLHFNSPEFRSLISNKDNLQSNHGIELEKGIHTLYNTMTESLVFSKVTPISLLALGGIGGRFDQTVHSITQLYTLSENASYFKLCYMTPTDLIFLIKKNGTLIEYDPQFRNTCIGNCGLLPIGEATLVKETRGLKWDVKNWPTSVVTGRVSSSNRFVGDNCCFIDTKDDIILNVEIFVDKLIDFLQLDGDLEAA
For B1, in data set [2], the “stoichiometry N” value worked out at 2.
